B1: wild-type N2 VHH antibody [camelid] / TAMRA-labeled α-synuclein peptide [modified: tetramethylrhodamine (TAMRA) fluorophore, position not stated; tetramethylrhodamine (TAMRA) fluorophore, position not stated] [not stated] (parent)
chain 1: GQLVESGGGSVQAGGSLRLSCAASGIDSSSYCMGWFRQRPGKEREGVARINGLGGVKTAYADSVKDRFTISRDNAENTVYLQMNSLKPEDTAIYYCAAKFSPGYCGGSWSNFGYWGQGTQVTVSSH
chain 2: GYQDYEPEA

This test covers variants of B1. Briefly: fluorescence polarization. As to conditions: with TAMRA-labeled α-synuclein peptide [modified: tetramethylrhodamine (TAMRA) fluorophore, 400 nM VHH, 2 nM TAMRA-labeled α-synuclein peptide, parent: 1, read off a plot. For orientation: Fluorescence polarisation rises when a labelled molecule tumbles more slowly, as on binding a larger partner.
Regarding chain 1 N51A, the ratio to parent amounted to 0.015. In the case of chain 1 G55A, the ratio to parent amounted to 0.015.

chain 1 K57A: the ratio to parent amounted to 0.1. The value for chain 1 I50A was 0.41; that for chain 1 W109A was 0.075; that for chain 1 G52A was -0.01. The value for chain 1 Y104A was 0.07.
